Test results from IntAct's records for PubMed 31515488.

B1: Retinoic acid receptor RXR-gamma (Homo sapiens), P48443 (parent)
chain: MYGNYSHFMKFPAGYGGSPGHTGSTSMSPSAALSTGKPMDSHPSYTDTPVSAPRTLSAVGTPLNALGSPYRVITSAMGPPSGALAAPPGINLVAPPSSQLNVVNSVSSSEDIKPLPGLPGIGNMNYPSTSPGSLVKHICAICGDRSSGKHYGVYSCEGCKGFFKRTIRKDLIYTCRDNKDCLIDKRQRNRCQYCRYQKCLVMGMKREAVQEERQRSRERAESEAECATSGHEDMPVERILEAELAVEPKTESYGDMNMENSTNDPVTNICHAADKQLFTLVEWAKRIPHFSDLTLEDQVILLRAGWNELLIASFSHRSVSVQDGILLATGLHVHRSSAHSAGVGSIFDRVLTELVSKMKDMQMDKSELGCLRAIVLFNPDAKGLSNPSEVETLREKVYATLEAYTKQKYPEQPGRFAKLLLRLPALRSIGLKCLEHLFFFKLIGDTPIDTFLMEMLETPLQIT
partner: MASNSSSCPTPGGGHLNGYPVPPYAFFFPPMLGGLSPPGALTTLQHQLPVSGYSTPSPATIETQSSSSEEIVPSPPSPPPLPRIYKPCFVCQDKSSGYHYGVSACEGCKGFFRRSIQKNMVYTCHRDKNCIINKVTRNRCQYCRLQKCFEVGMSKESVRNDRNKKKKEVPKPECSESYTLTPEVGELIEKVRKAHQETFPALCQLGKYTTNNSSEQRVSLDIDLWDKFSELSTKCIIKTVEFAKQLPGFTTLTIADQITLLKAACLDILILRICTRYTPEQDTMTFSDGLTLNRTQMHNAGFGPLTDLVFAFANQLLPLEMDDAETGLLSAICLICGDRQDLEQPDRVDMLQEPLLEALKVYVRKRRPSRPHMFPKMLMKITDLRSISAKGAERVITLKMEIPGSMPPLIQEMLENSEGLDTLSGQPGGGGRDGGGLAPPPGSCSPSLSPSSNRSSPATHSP
B2: Vacuolar protein sorting-associated protein 4B (Homo sapiens), O75351 (parent)
chain: MSSTSPNLQKAIDLASKAAQEDKAGNYEEALQLYQHAVQYFLHVVKYEAQGDKAKQSIRAKCTEYLDRAEKLKEYLKNKEKKAQKPVKEGQPSPADEKGNDSDGEGESDDPEKKKLQNQLQGAIVIERPNVKWSDVAGLEGAKEALKEAVILPIKFPHLFTGKRTPWRGILLFGPPGTGKSYLAKAVATEANNSTFFSISSSDLVSKWLGESEKLVKNLFQLARENKPSIIFIDEIDSLCGSRSENESEAARRIKTEFLVQMQGVGVDNDGILVLGATNIPWVLDSAIRRRFEKRIYIPLPEPHARAAMFKLHLGTTQNSLTEADFRELGRKTDGYSGADISIIVRDALMQPVRKVQSATHFKKVRGPSRADPNHLVDDLLTPCSPGDPGAIEMTWMDVPGDKLLEPVVSMSDMLRSLSNTKPTVNEHDLLKLKKFTEDFGQEG
B3: Zinc finger protein RFP (Homo sapiens), P14373 (parent)
chain: MASGSVAECLQQETTCPVCLQYFAEPMMLDCGHNICCACLARCWGTAETNVSCPQCRETFPQRHMRPNRHLANVTQLVKQLRTERPSGPGGEMGVCEKHREPLKLYCEEDQMPICVVCDRSREHRGHSVLPLEEAVEGFKEQIQNQLDHLKRVKDLKKRRRAQGEQARAELLSLTQMEREKIVWEFEQLYHSLKEHEYRLLARLEELDLAIYNSINGAITQFSCNISHLSSLIAQLEEKQQQPTRELLQDIGDTLSRAERIRIPEPWITPPDLQEKIHIFAQKCLFLTESLKQFTEKMQSDMEKIQELREAQLYSVDVTLDPDTAYPSLILSDNLRQVRYSYLQQDLPDNPERFNLFPCVLGSPCFIAGRHYWEVEVGDKAKWTIGVCEDSVCRKGGVTSAPQNGFWAVSLWYGKEYWALTSPMTALPLRTPLQRVGIFLDYDAGEVSFYNVTERCHTFTFSHATFCGPVRPYFSLSYSGGKSAAPLIICPMSGIDGFSGHVGNHGHSMETSP
partner: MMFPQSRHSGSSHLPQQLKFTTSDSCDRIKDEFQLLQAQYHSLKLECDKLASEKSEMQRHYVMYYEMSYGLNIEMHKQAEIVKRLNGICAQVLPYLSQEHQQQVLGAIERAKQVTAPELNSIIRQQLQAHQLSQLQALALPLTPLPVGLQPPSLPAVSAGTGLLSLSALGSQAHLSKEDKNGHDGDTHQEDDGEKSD
B4: Protein N-lysine methyltransferase METTL21A (Homo sapiens), Q8WXB1 (parent)
chain: MALVPYEETTEFGLQKFHKPLATFSFANHTIQIRQDWRHLGVAAVVWDAAIVLSTYLEMGAVELRGRSAVELGAGTGLVGIVAALLGAHVTITDRKVALEFLKSNVQANLPPHIQTKTVVKELTWGQNLGSFSPGEFDLILGADIIYLEETFTDLLQTLEHLCSNHSVILLACRIRYERDNNFLAMLERQFTVRKVHYDPEKDVHIYEAQKRNQKEDL
B5: H/ACA ribonucleoprotein complex subunit 3 (Homo sapiens), Q9NPE3 (parent)
chain: MFLQYYLNEQGDRVYTLKKFDPMGQQTCSAHPARFSPDDKYSRHRITIKKRFKVLMTQQPRPVL
partner: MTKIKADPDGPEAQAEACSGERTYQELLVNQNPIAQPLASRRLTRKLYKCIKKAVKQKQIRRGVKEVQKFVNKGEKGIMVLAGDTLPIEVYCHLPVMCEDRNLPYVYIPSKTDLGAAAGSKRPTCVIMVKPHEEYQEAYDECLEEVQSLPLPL
B6: G patch domain and ankyrin repeat-containing protein 1 (Homo sapiens), O95872 (parent)
chain: MSRPLLITFTPATDPSDLWKDGQQQPQPEKPESTLDGAAARAFYEALIGDESSAPDSQRSQTEPARERKRKKRRIMKAPAAEAVAEGASGRHGQGRSLEAEDKMTHRILRAAQEGDLPELRRLLEPHEAGGAGGNINARDAFWWTPLMCAARAGQGAAVSYLLGRGAAWVGVCELSGRDAAQLAEEAGFPEVARMVRESHGETRSPENRSPTPSLQYCENCDTHFQDSNHRTSTAHLLSLSQGPQPPNLPLGVPISSPGFKLLLRGGWEPGMGLGPRGEGRANPIPTVLKRDQEGLGYRSAPQPRVTHFPAWDTRAVAGRERPPRVATLSWREERRREEKDRAWERDLRTYMNLEF
partner: B3 chain
B7: Hematopoietic lineage cell-specific protein (Homo sapiens), P14317 (parent)
chain: MWKSVVGHDVSVSVETQGDDWDTDPDFVNDISEKEQRWGAKTIEGSGRTEHINIHQLRNKVSEEHDVLRKKEMESGPKASHGYGGRFGVERDRMDKSAVGHEYVAEVEKHSSQTDAAKGFGGKYGVERDRADKSAVGFDYKGEVEKHTSQKDYSRGFGGRYGVEKDKWDKAALGYDYKGETEKHESQRDYAKGFGGQYGIQKDRVDKSAVGFNEMEAPTTAYKKTTPIEAASSGTRGLKAKFESMAEEKRKREEEEKAQQVARRQQERKAVTKRSPEAPQPVIAMEEPAVPAPLPKKISSEAWPPVGTPPSSESEPVRTSREHPVPLLPIRQTLPEDNEEPPALPPRTLEGLQVEEEPVYEAEPEPEPEPEPEPENDYEDVEEMDRHEQEDEPEGDYEEVLEPEDSSFSSALAGSSGCPAGAGAGAVALGISAVAVYDYQGEGSDELSFDPDDVITDIEMVDEGWWRGRCHGHFGLFPANYVKLLE
partner: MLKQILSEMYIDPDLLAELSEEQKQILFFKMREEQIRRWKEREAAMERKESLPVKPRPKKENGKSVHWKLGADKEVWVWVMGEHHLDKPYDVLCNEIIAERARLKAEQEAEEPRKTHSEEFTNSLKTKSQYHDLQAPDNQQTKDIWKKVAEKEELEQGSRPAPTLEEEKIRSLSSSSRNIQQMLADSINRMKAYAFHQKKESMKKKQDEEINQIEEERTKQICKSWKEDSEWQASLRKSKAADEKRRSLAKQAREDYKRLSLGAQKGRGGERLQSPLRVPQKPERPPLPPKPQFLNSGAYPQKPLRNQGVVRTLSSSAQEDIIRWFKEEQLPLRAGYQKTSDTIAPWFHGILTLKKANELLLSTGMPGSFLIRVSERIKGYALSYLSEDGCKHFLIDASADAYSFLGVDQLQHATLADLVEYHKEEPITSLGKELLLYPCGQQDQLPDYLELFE
B8: Splicing factor 45 (Homo sapiens), Q96I25 (parent)
chain: MSLYDDLGVETSDSKTEGWSKNFKLLQSQLQVKKAALTQAKSQRTKQSTVLAPVIDLKRGGSSDDRQIVDTPPHVAAGLKDPVPSGFSAGEVLIPLADEYDPMFPNDYEKVVKRQREERQRQRELERQKEIEEREKRRKDRHEASGFARRPDPDSDEDEDYERERRKRSMGGAAIAPPTSLVEKDKELPRDFPYEEDSRPRSQSSKAAIPPPVYEEQDRPRSPTGPSNSFLANMGGTVAHKIMQKYGFREGQGLGKHEQGLSTALSVEKTSKRGGKIIVGDATEKDASKKSDSNPLTEILKCPTKVVLLRNMVGAGEVDEDLEVETKEECEKYGKVGKCVIFEIPGAPDDEAVRIFLEFERVESAIKAVVDLNGRYFGGRVVKACFYNLDKFRVLDLAEQV
partner: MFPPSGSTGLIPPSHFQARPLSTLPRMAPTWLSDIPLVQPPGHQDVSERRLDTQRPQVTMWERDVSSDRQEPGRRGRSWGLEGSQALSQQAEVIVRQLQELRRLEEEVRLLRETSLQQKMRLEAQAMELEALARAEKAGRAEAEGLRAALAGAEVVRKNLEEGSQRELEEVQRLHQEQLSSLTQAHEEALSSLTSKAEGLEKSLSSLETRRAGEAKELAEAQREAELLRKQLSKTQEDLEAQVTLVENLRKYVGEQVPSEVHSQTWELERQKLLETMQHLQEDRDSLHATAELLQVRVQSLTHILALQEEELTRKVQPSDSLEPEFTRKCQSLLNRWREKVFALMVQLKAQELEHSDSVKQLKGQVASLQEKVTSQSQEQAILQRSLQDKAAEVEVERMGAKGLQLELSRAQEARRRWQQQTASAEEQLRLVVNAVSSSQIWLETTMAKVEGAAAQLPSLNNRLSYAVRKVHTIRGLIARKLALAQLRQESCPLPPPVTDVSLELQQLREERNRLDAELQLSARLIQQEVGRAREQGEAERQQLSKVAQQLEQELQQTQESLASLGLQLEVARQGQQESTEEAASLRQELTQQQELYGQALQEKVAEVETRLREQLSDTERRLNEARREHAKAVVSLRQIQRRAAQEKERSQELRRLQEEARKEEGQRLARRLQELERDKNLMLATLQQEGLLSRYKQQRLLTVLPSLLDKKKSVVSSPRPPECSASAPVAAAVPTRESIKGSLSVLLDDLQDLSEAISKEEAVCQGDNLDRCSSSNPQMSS

Variants of: B1
Conditions: with rara_human RARA

| effect of a mutation on the interaction | Variant |
| --- | --- |
| with no effect | A86V |

Variants of: B2
Conditions: with anchr_human ZFYVE19, Q96K21
Sequence of anchr_human ZFYVE19, Q96K21 (Q96K21 whole entry): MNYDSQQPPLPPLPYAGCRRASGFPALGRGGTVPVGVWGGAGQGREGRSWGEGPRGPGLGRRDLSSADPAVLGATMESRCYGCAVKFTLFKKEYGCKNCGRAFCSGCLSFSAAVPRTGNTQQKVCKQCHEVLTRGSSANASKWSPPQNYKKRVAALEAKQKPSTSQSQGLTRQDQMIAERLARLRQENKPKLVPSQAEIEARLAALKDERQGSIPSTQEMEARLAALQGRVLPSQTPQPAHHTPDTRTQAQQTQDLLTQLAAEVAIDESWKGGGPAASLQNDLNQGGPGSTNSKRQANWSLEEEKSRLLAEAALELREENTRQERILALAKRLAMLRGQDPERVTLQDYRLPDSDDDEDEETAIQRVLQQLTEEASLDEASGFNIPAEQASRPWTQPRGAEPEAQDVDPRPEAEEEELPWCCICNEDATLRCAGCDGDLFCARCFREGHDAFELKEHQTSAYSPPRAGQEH

| effect of a mutation on the interaction | Variant |
| --- | --- |
| with no effect | I58M |

Variants of: B3
Conditions: with tle5_human TLE5, Q08117

| effect of a mutation on the interaction | Variant |
| --- | --- |
| with no effect | N355S |

Variants of: B4
Conditions: with FAM200C

| effect of a mutation on the interaction | Variant |
| --- | --- |
| disrupting interaction strength | A209P |

Variants of: B5
Conditions: with nhp2_human NHP2, Q9NX24

| effect of a mutation on the interaction | Variant |
| --- | --- |
| with no effect | D12H |

Variants of: B6
Conditions: with tri27_human TRIM27, P14373

| effect of a mutation on the interaction | Variant |
| --- | --- |
| disrupting interaction strength | D56E |

Variants of: B7
Conditions: with sh24a_human SH2D4A

| effect of a mutation on the interaction | Variant |
| --- | --- |
| with no effect | E361K |
| with no effect | P218L |
| with no effect | W21C |

Variants of: B8
Conditions: with cchcr_human CCHCR1, Q8TD31

| Variant | effect of a mutation on the interaction |
| --- | --- |
| T224I | with no effect |
